Positions count from the first letter of the chain named. Like-named read-outs stand apart in the source and are kept apart here. One block for each binder: values may come before it.
Experiments:
hIL-5 [1] = biological target: T1, hIL-5 (human, UniProt P05113 20-134); test: ELISA
T1 construct: bought
Method: (§1) For an antibody targeting a soluble protein, the binding activity of the antibody against the soluble protein was detected by ELISA. […] After the blocking was completed, the blocking solution was discarded; and the plate was washed 3 times with a PBST buffer (pH 7.4, PBS containing 0.1% tween-20). 100 μL of the antibody solution diluted in a gradient was added to each well, and the mixture was incubated at 37° C. for 1 h. After the incubation was completed, the plate was washed 3 times with PBST. […] The plate was washed 3 times with PBST. […] The reaction was stopped by adding 50 μL of 1 M H₂SO₄ to each well. The absorbance values at 450 nm were read on a microplate reader, the binding curves of the antibodies to an antigen were fitted with software, and the EC₅₀ values were calculated.

[2] = biological target: T2, B7H3 on the recombinant cell line CT26-B7H3 (UniProt Q5ZPR3 29-534, limits assumed); test: FACS, CT26-B7H3 cells
T2 construct: whole, on cells
T2 sequence (looked up): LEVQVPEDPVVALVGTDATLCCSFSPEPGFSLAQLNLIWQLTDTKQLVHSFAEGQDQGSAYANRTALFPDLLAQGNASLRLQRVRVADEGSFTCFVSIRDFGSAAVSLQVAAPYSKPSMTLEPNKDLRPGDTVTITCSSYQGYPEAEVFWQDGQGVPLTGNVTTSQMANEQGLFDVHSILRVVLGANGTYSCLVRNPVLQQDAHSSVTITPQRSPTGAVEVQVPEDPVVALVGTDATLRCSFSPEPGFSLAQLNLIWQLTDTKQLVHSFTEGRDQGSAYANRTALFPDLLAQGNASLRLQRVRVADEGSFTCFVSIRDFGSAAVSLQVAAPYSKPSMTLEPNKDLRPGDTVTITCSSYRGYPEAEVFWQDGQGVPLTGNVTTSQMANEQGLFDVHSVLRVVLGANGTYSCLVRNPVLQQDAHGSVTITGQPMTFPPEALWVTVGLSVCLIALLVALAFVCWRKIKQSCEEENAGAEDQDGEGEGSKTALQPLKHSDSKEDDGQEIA

[3] = biological target: T2, B7H3 on the recombinant cell line …; test: FACS, CT26-B7H3 cells; remark: listed apart in the source
hIL-5 [4] = biological target: T1, hIL-5; test: ELISA; remark: listed apart in the source
Method: as §1

hIL-5 [5] = biological target: T1, hIL-5; test: ELISA; remark: listed apart in the source
Method: as §1

B1: R1 (antibody)
heavy: not shown
light: DIQMTQSPSSLSASVGDRVTITCLASEGISSYLAWYQQKPGKAPKLLIYGANSLQTGVPSRFSGSGSATDYTLTISSLQPEDFATYYCQQSYKFPNTFGQGTKVEVKGILQPDPPANITVTAVARNPRWLSVTWQDPHSWNSSFYRLRFELRYRAERSKTFTTWMVKDLQHHCVIHDAWSGLRHVVQLRAQEEFGQGEWSEWSPEAMGTPW
EC50 (hIL-5 [1]): 24.4 nM

B2: F4 (antibody)
heavy: not shown
light: DTVVTQEPSFSVSPGGTVTLTCGLSSGSVSTSHYPSWYQQTPGQAPRMLIYNTNTRSSGVPDRFSGSILGNKAALTITGAQADDESDYYCAIHVDRDIWVFGGGTKLTVLQGSPPCFLRFPRPVRVVSGAEAELKCVVLGEPPPVVVWEKGGQQLAASERLSFPADGAEHGLLLTAALPTDAGVYVCRARNAAGEAYAAAAVTVLEPP
EC50 [2]: 2.17 nM
EC50 [3]: 3.01 nM

B4: R2 (antibody)
heavy: not shown
light: DIQMTQSPSSLSASVGDRVTITCLASEGISSYLAWYQQKPGKAPKLLIYGANSLQTGVPSRFSGSGSATDYTLTISSLQPEDFATYYCQQSYKFPNTFGQGTKVEVKFDPVYKVKPNPPHNLSVINSEELSSILKLTWTNPSIKSVIILKYNIQYRTKDASTWSQIPPEDTASTRSSFTVQDLKPFTEYVFRIRCMKEDGKGYWSDWSEEASGIT
EC50 (hIL-5 [1]): 18.4 nM

B5: H1 (antibody)
heavy: not shown
light: DIQMTQSPSSVSASVGDRVTITCRASQDIANYLSWYQQKPGKSPKLLIYGTSNLEVGVPSRFSGSRSGTDFTLTISSLQPEDFATYYCLQDKEFPRTFGGGTKVEIKGILQPDPPANITVTAVARNPRWLSVTWQDPHSWNSSFYRLRFELRYRAERSKTFTTWMVKDLQHHCVIHDAWSGLRHVVQLRAQEEFGQGEWSEWSPEAMGTPW
EC50 (hIL-5 [1]): 19.4 nM

B6: H4 (antibody)
heavy: not shown
light: DIQMTQSPSSVSASVGDRVTITCRASQDIANYLSWYQQKPGKSPKLLIYGTSNLEVGVPSRFSGSRSGTDFTLTISSLQPEDFATYYCLQDKEFPRTFGGGTKVEIKQGSPPCFLRFPRPVRVVSGAEAELKCVVLGEPPPVVVWEKGGQQLAASERLSFPADGAEHGLLLTAALPTDAGVYVCRARNAAGEAYAAAAVTVLEPP
EC50 (hIL-5 [4]): 3.28 nM
EC50 (hIL-5 [1]): 2.7 nM

B8: R0 (antibody, human IgG1, kappa)
heavy: not shown
light: DIQMTQSPSSLSASVGDRVTITCLASEGISSYLAWYQQKPGKAPKLLIYGANSLQTGVPSRFSGSGSATDYTLTISSLQPEDFATYYCQQSYKFPNTFGQGTKVEVKRTVAAPSVFIFPPSDEQLKSGTASVVCLLNNFYPREAKVQWKVDNALQSGNSQESVTEQDSKDSTYSLSSTLTLSKADYEKHKVYACEVTHQGLSSPVTKSFNRGEC
EC50 (hIL-5 [1]): 1.75 nM

B9: H2 (antibody)
heavy: not shown
light: DIQMTQSPSSVSASVGDRVTITCRASQDIANYLSWYQQKPGKSPKLLIYGTSNLEVGVPSRFSGSRSGTDFTLTISSLQPEDFATYYCLQDKEFPRTFGGGTKVEIKFDPVYKVKPNPPHNLSVINSEELSSILKLTWTNPSIKSVIILKYNIQYRTKDASTWSQIPPEDTASTRSSFTVQDLKPFTEYVFRIRCMKEDGKGYWSDWSEEASGIT
EC50 (hIL-5 [1]): 24.4 nM

B10: F3 (antibody)
heavy: not shown
light: DTVVTQEPSFSVSPGGTVTLTCGLSSGSVSTSHYPSWYQQTPGQAPRMLIYNTNTRSSGVPDRFSGSILGNKAALTITGAQADDESDYYCAIHVDRDIWVFGGGTKLTVLSGAPRFLTRPKAFVVSVGKDATLSCQIVGNPTPQVSWEKDQQPVAAGARFRLAQDGDLYRLTILDLALGDSGQYVCRARNAIGEAFAAVGLQVDAEA
EC50 [2]: 2.83 nM
EC50 [3]: 2.64 nM

B11: R3 (antibody)
heavy: not shown
light: DIQMTQSPSSLSASVGDRVTITCLASEGISSYLAWYQQKPGKAPKLLIYGANSLQTGVPSRFSGSGSATDYTLTISSLQPEDFATYYCQQSYKFPNTFGQGTKVEVKGIPPKIEALPSDISIDEGKVLTVACAFTGEPTPEVTWSCGGRKIHSQEQGRFHIENTDDLTTLIIMDVQKQDGGLYTLSLGNEFGSDSATVNIHIRSI
EC50 (hIL-5 [1]): 1.58 nM

B13: H3 (antibody)
heavy: not shown
light: DIQMTQSPSSVSASVGDRVTITCRASQDIANYLSWYQQKPGKSPKLLIYGTSNLEVGVPSRFSGSRSGTDFTLTISSLQPEDFATYYCLQDKEFPRTFGGGTKVEIKSGAPRFLTRPKAFVVSVGKDATLSCQIVGNPTPQVSWEKDQQPVAAGARFRLAQDGDLYRLTILDLALGDSGQYVCRARNAIGEAFAAVGLQVDAEA
EC50 (hIL-5 [4]): 3.24 nM
EC50 (hIL-5 [1]): 2.75 nM

B14: H0 (antibody, human IgG1, kappa)
heavy: not shown
light: DIQMTQSPSSVSASVGDRVTITCRASQDIANYLSWYQQKPGKSPKLLIYGTSNLEVGVPSRFSGSRSGTDFTLTISSLQPEDFATYYCLQDKEFPRTFGGGTKVEIKRTVAAPSVFIFPPSDEQLKSGTASVVCLLNNFYPREAKVQWKVDNALQSGNSQESVTEQDSKDSTYSLSSTLTLSKADYEKHKVYACEVTHQGLSSPVTKSFNRGEC
EC50 (hIL-5 [1]): 1.74 nM

B16: R13 (antibody)
heavy: not shown
light: DIQMTQSPSSLSASVGDRVTITCLASEGISSYLAWYQQKPGKAPKLLIYGANSLQTGVPSRFSGSGSATDYTLTISSLQPEDFATYYCQQSYKFPNTFGQGTKVEVKSGAPRFLTRPKAFVVSVGKDATLSSQIVGNPTPQVSWEKDQQPVAAGARFRLAQDGDLYRLTILDLALGDSGQYVSRARNAIGEAFACVGLQVDAEA
EC50 (hIL-5 [5]): 0.4 nM

Continued, values first:

EC50 (hIL-5 [1]): 2.02 nM
B3: R6 (antibody)
heavy: not shown
light: DIQMTQSPSSLSASVGDRVTITCLASEGISSYLAWYQQKPGKAPKLLIYGANSLQTGVPSRFSGSGSATDYTLTISSLQPEDFATYYCQQSYKFPNTFGQGTKVEVKQGSPPCFLRFPRPVRVVSGAEAELKCVVLGEPPPVVVWEKGGQQLAASERLSFPADGAEHGLLLTAALPTDAGVYVCRARNAAGEAYAAAAVTVLEPP

EC50 (hIL-5 [5]): 0.36 nM
B7: R19 (antibody)
heavy: not shown
light: DIQMTQSPSSLSASVGDRVTITCLASEGISSYLAWYQQKPGKAPKLLIYGANSLQTGVPSRFSGSGSATDYTLTISSLQPEDFATYYCQQSYKFPNTFGQGTKVEVKDQPQFSGAPRFKTRPKAFVVSVGKDATLSSQIVGNPTPQVSWEKDQQPVAAGARFRLAQDGDLYRLKILDLALGDSGQYVSRARNAIGEAFACVGLQVDAEA

EC50 (hIL-5 [1]): 1.67 nM
B12: R4 (antibody)
heavy: not shown
light: B11 light

EC50 (hIL-5 [4]): 4.13 nM
EC50 (hIL-5 [1]): 1.59 nM
B15: R5 (antibody)
heavy: not shown
light: B16 light with S132C, S183C, C195A

EC50 (hIL-5 [5]): 0.3 nM
B17: R15 (antibody)
heavy: not shown
light: B16 light with L114K, T169H

EC50 (hIL-5 [5]): 0.4 nM
B18: R17 (antibody)
heavy: not shown
light: B16 light with K118L, T169H

EC50 (hIL-5 [5]): 0.33 nM
B19: R16 (antibody)
heavy: not shown
light: B16 light with K118L, T169K

EC50 (hIL-5 [5]): 0.2 nM
B20: R14 (antibody)
heavy: not shown
light: B16 light with L114K, T169K
